Earlier results, collected in patent US20190298804A1, “ACTIVATION OF THE ENDOGENOUS ILEAL BRAKE HORMONE PATHWAY FOR ORGAN REGENERATION AND RELATED COMPOSITIONS, METHODS OF TREATMENT, DIAGNOSTICS, AND REGULATORY SYSTEMS” (VOLANT HOLDINGS GMBH, priority 2013, published 2019).

Test system: MIN-6 cells
Details: immunoprecipitation and western blotting

B1: BTC: member of the epidermal growth factor family (protein, UniProt P35070 32-111, looked up)
Betacellulin: DGNSTRSPETNGLLCGDPEENCAATTTQSKRKGHFSRCPKQYKHYCIKGRCRFVVAEQTPSCVCDEGYIGARCERVDLFY
modifications: Betacellulin
notes: member of the epidermal growth factor family
In the case of B1, the “phosphorylation of EGF receptors” value is given as “induced phosphorylation of only ErbB-1 and ErbB-2”.
